Consider 38 sequences from the supplement of paper PMC7877785.

± gives the uncertainty stated by the source.

A short description of this series: self-splicing fitness, log relative to wild type (ln ratio); higher = more splicing; Tetrahymena group I intron in knt gene, E. coli kanamycin selection, DiMSum; sequences stand for … in CUCUCU…GGAGGGAAAAGUUAUCAGGCAUGCACCUGGUAGCUAGUCUUUAAACCAAUAGAUUGCAUCGGUUUAAAAGGCAAGACCGUCAAAUUGCGGGAAAGGGGUCAACAGCCGUUCAGUACCAAGUCUCAGGGGAAACUUUGAGAUGGCCUUGCAAAGGGUAUGGUAAUAAGCUGACGGACAUGGUCCUAACCACGCAGCCAAGUCCUAAGUCAACAGAUCUUCUGUUGAUAUGGAUGCAGUUCACAGACUAAAUGUCGGUCGGGGAAGAUGUAUUCUUCUCAUAAGAUAUAGUCGGACCUCUCCUUAAUGGGAGCUAGCGGAUGAAGUGAUGCAACACUGGAGCCGCUGGGAACUAAUUUGUAUGCGAAAGUAUAUUGAUUAGUUUUGGAGUACUCGUGGUCG
The essentials:
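Fitness was computed with DiMSum as the error-weighted combination of replicate fold changes, kanamycin versus none, each normalised to wild type. The library randomised all eight intron nucleotides of the P1ex region, with the intron placed in the knt kanamycin-resistance gene on pET-22b(+) in E. coli BL21(DE3). Six replicate transformations were grown overnight at 37°C or 30°C on LB agar with or without 25 μg/mL kanamycin, plus 100 μg/mL carbenicillin, 50 μM IPTG and 0.2% rhamnose. Pooled colonies were amplicon-sequenced on an Illumina HiSeq 2500.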

GUUCAGCAAUAUUACGGAUU: the “self-splicing fitness (ln)” value is -0.537 ± 0.092 (30 °C) and 0.247 ± 0.14 (37 °C). Taken in the same sequence, the figures for UCCGAGCAAUAUUACGUGGC were -3.27 ± 0.24 and -2.52 ± 0.33. In the case of GUCCAGCAAUAUUACGUAGG, the “self-splicing fitness (ln)” value runs as follows: (30 °C) -2.31 ± 0.13; (37 °C) -1.84 ± 0.15. As for AUAAAGCAAUAUUACGUGGU, the “self-splicing fitness (ln)” value (30 °C) is -2.45 ± 0.094 and the “self-splicing fitness (ln)” value (37 °C) was -1.64 ± 0.1. Taken in the same sequence, the figures for UGAAAGCAAUAUUACGAAGA were -2.23 ± 0.3 and -0.283 ± 0.19. The corresponding values for GAGUAGCAAUAUUACGGGAU are -3.73 ± 0.33 and -2.96 ± 0.35. On to GUAGAGCAAUAUUACGAAAG, for which the “self-splicing fitness (ln)” value (30 °C) is -1.56 ± 0.32. CUUGAGCAAUAUUACGCAGC: the “self-splicing fitness (ln)” value was -2.02 ± 0.3 (30 °C) and -0.712 ± 0.28 (37 °C). The corresponding values for CGCCAGCAAUAUUACGCUAC are -3.74 ± 0.36 and -2.58 ± 0.28. The corresponding values for AACGAGCAAUAUUACGAAUC are -3.96 ± 0.26 and -2.5 ± 0.41. CUAAAGCAAUAUUACGCAUC: the “self-splicing fitness (ln)” value (30 °C) is -4.03 ± 0.35. As for GGUGAGCAAUAUUACGGGUG, the “self-splicing fitness (ln)” value by setting is: (30 °C) -3.18 ± 0.26; (37 °C) -2.7 ± 0.27. The corresponding values for AACAAGCAAUAUUACGCCGC are -3.05 ± 0.31 and -1.94 ± 0.36. For the sequence CAAUAGCAAUAUUACGAAUU, the “self-splicing fitness (ln)” value (30 °C) is -3.51 ± 0.26 and the “self-splicing fitness (ln)” value (37 °C) is -2.23 ± 0.18. The corresponding values for UAAUAGCAAUAUUACGCUCC are -1.74 ± 0.39 and -0.899 ± 0.32. On to CCAAAGCAAUAUUACGAGCU, for which the “self-splicing fitness (ln)” value runs as follows: (30 °C) -3.38 ± 0.22; (37 °C) -2.14 ± 0.22. The corresponding values for GUAAAGCAAUAUUACGGAAG are -2.86 ± 0.18 and -1.36 ± 0.15. Taken in the same sequence, the figures for UGAUAGCAAUAUUACGGGUU were -3.88 ± 0.23 and -1.98 ± 0.17.

Take ACCAAGCAAUAUUACGAUCA: the “self-splicing fitness (ln)” value was -1.55 ± 0.086 (30 °C) and -1.22 ± 0.075 (37 °C). Taken in the same sequence, the figures for CACAAGCAAUAUUACGAGAU were -3.28 ± 0.1 and -2.74 ± 0.12. The corresponding values for AGCCAGCAAUAUUACGCUGC are -3.09 ± 0.34 and -2.59 ± 0.26. The corresponding values for CAUUAGCAAUAUUACGAGCA are -3.42 ± 0.23 and -2.28 ± 0.14.

For UUGCAGCAAUAUUACGGGGG, the “self-splicing fitness (ln)” value (30 °C) is -2.4 ± 0.17 and the “self-splicing fitness (ln)” value (37 °C) is -2.23 ± 0.24. For AGCUAGCAAUAUUACGGUUC, the “self-splicing fitness (ln)” value is, setting by setting: (30 °C) -3.44 ± 0.28; (37 °C) -0.512 ± 0.17. Taken in the same sequence, the figures for AACCAGCAAUAUUACGAGCG were -1.14 ± 0.072 and -0.281 ± 0.084. Regarding GCCGAGCAAUAUUACGUAUC, the “self-splicing fitness (ln)” value (30 °C) is -2.66 ± 0.16 and the “self-splicing fitness (ln)” value (37 °C) was -1.75 ± 0.13.

Regarding GCUCAGCAAUAUUACGGAUG, the “self-splicing fitness (ln)” value (30 °C) is -1.76 ± 0.094 and the “self-splicing fitness (ln)” value (37 °C) was -1.12 ± 0.12. In the case of UAAAAGCAAUAUUACGCUUU, the “self-splicing fitness (ln)” value is -3.78 ± 0.23 (30 °C) and -2.52 ± 0.3 (37 °C). The corresponding values for UUUCAGCAAUAUUACGCGUA are -0.663 ± 0.086 and -0.289 ± 0.088. Taken in the same sequence, the figures for GGAUAGCAAUAUUACGGCGG were -1.95 ± 0.14 and -0.444 ± 0.13. The corresponding values for GAAAAGCAAUAUUACGCGCG are -0.276 ± 0.076 and -0.478 ± 0.11. Turning to CCCAAGCAAUAUUACGGCUU, the “self-splicing fitness (ln)” value runs as follows: (30 °C) -4.22 ± 0.22; (37 °C) -3.15 ± 0.17. Taken in the same sequence, the figures for CUAUAGCAAUAUUACGGUGA were -3.35 ± 0.18 and -2.59 ± 0.23. The corresponding values for UUGCAGCAAUAUUACGAGCG are -1.14 ± 0.15 and -0.665 ± 0.15. For UGCGAGCAAUAUUACGUUGG, the “self-splicing fitness (ln)” value (37 °C) is -1.27 ± 0.26. Regarding UGCGAGCAAUAUUACGAGGG, the “self-splicing fitness (ln)” value is, setting by setting: (30 °C) -2.1 ± 0.13; (37 °C) -2.3 ± 0.17.

Take AGAGAGCAAUAUUACGAGGG: the “self-splicing fitness (ln)” value was -3.58 ± 0.39 (30 °C) and -2.35 ± 0.42 (37 °C). The corresponding values for ACCCAGCAAUAUUACGUCGA are -1.03 ± 0.078 and -0.528 ± 0.077.
